Series [1] concerns the target dephosphorylated α-casein (UniProt P02662).

Sequence of dephosphorylated α-casein (P02662 16-214): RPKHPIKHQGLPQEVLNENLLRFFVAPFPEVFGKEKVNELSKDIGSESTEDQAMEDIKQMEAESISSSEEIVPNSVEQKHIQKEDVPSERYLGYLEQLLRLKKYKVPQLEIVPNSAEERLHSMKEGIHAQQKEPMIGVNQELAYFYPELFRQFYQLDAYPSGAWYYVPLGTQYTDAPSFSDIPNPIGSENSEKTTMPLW

On to “catalytic domain of the human hepatocyte growth factor receptor kinase (HGFRkd), unphosphorylated”, for which the autophosphorylation rate entry was “The HGFR autophosphorylation rate is dependent on the concentration of HGFR”. In the series on poly(Glu4Tyr), the Km (steady-state, coupled enzymatic assay, 37 C) turned out to be 10.1 mM and the kcat/Km (steady-state, coupled enzymatic assay, 37 C) was found to be 48.1 s^-1M^-1.

As for “phosphorylated HGFR (autophosphorylated catalytic domain of the human hepatocyte growth factor receptor kinase)”, in the series with poly(Glu4Tyr), the Km (steady-state, coupled enzymatic assay, 37 C) was 8.19 mM and the kcat/Km (steady-state, coupled enzymatic assay, 37 C) worked out at 9260 s^-1M^-1. In addition, the “Km, Dephosphorylated α-casein (coupled, enzymatic format)” value in series [1] turned out to be 0.0285 ± 0.0035 mM.

(Values after patent publication US20040009568.)
